According to US20260209386A1 (MYTHIC THERAPEUTICS, published 2026):

T1: Human PTK7 (human, UniProt Q13308 31-1070)
T1 sequence: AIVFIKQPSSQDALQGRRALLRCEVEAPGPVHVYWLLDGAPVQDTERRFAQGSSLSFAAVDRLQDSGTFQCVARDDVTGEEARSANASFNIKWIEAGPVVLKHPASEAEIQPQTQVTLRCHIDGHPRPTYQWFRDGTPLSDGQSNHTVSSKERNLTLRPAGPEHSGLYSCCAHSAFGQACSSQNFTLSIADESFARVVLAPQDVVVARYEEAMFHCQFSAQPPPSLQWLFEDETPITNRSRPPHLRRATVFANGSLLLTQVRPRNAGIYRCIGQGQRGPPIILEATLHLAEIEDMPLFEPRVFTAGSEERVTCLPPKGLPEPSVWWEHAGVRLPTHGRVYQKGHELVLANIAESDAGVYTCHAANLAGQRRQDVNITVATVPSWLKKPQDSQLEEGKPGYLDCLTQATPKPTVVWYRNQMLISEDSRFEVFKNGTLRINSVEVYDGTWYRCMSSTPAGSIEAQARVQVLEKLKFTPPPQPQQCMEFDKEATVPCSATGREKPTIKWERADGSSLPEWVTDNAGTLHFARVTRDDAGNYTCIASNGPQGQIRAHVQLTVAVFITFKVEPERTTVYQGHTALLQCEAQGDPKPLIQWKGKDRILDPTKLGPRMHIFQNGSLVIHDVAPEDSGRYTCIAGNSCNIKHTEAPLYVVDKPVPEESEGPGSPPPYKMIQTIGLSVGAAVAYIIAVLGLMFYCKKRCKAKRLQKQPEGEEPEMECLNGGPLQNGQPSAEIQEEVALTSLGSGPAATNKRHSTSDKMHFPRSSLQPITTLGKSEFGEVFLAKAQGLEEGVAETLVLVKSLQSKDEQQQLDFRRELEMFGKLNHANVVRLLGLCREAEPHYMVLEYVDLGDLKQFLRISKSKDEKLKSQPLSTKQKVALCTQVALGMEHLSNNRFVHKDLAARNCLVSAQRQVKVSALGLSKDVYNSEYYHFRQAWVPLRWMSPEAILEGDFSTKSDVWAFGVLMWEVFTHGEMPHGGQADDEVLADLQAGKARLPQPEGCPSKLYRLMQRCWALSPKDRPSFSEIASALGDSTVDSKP


Target: T1, Human PTK7
Experiment: cell-based or functional assay

Binder	Internalization, FOW @ 25 nM (fold over the wildtype, parental antibody)
MYT11142 (antibody, V domains shown) VH: EVQLVESGGGLVQPGGSLRLSCTASGFSLSTYAMSWVRQAPGKGLEWVGMIYINDNTYYASWAKGRFTISRDTSKNTVYLQMNSLRAEDTAVYYCARDIGISYYIGVSLWGQGTLVTVSS VL: EIVMTQSPSTLSASVGDRVIITCQASQSIGTRLSWYQQKPGKAPKLLIYGASKLATGVPSRFSGSGSGAEFTLTISSLQPDDFATYYCLGEYSYTTTDGIAFGQGTKLTVL	1.29 fold over parental antibody
MYT11143 (antibody, V domains shown) VH: EVQLVESGGGLVQPGGSLRLSCTASGFSLSTYAMSWVRQAPGKGLEWVGMIYINANTYYASWAKGRFTISRDTSKNTVYLQMNSLRAEDTAVYFCARDIGISYYIGVSLWGQGTLVTVSS VL: EIVMTQSPSTLSASVGDRVIITCQASQSIGTRLSWYQQKPGKAPKLLIYGASKLATGVPSRFSGSGSGAEFTLTISSLQPDDFATYYCLGEYSYTTTDGIAFGQGTKLTVL	1.61 fold over parental antibody
MYT11068 (antibody, V domains shown) VH: EVQLVESGGGLVQPGGSLRLSCTASGLSLSSYWMSWVRQAPGKGLEWVGVISAGGNTYYANWAKGRFTISRDTSKNTVYLQMNSLRAEDTAVYFCARGDDGYTNAAYVSNHWGQGTLVTVSS VL: EIVMTQSPSTLSASVGDRVIITCQASQSISSWLSWYQQKPGKAPKLLIYKASTLASGVPSRFSGSGSGAEFTLTISSLQPDDFATYYCQSYFDSTTIAFGQGTKLTVL	1.22 fold over parental antibody
MYT11069 (antibody, V domains shown) VH: EVQLVESGGGLVQPGGSLRLSCTASGLSLSSYWMSWVRQAPGKGLEWVGVISAGGNTYYANWAKGRFTISRDTSKNTVYLQMNSLRAEDTAVYYCARGDDGYTNAAYVSNLWGQGTLVTVSS VL: EIVMTQSPSTLSASVGDRVIITCQASQSISSWLSWYQQKPGKAPKLLIYKASTLASGVPSRFSGSGSGAEFTLTISSLQPDDFATYYCQSYFDSTTIAFGQGTKLTVL	1.22 fold over parental antibody
MYT11100 (antibody, V domains shown) VH: EVQLVESGGGLVQPGGSLRLSCTASGLSLSSYWMSWVRQAPGKGLEWVGVISAGGNTYYANWAKGRFTISRDTSKNTVYLQMNSLRAEDTAVYFCARGDDGYTNAAYVSNLWGQGTLVTVSS VL: EIVMTQSPSTLSASVGDRVIITCQASQSISSWLSWYQQKPGKAPKLLIYKASTLASGVPSRFSGSGSGAEFTLTISSLQPDDFATYYCQSYFDSTTIAFGQGTKLEIK	1.17 fold over parental antibody
MYT11078 (antibody, V domains shown) VH: EVQLVESGGGLVQPGGSLRLSCTASGLSLSSYWMSWVRQAPGKGLEWVGVISAGGNTYYANWAKGRFTISRDTSKNTVYLQMNSLRAEDTAVYFCARGDDGYTNAAYVSNLWGQGTLVTVSS VL: EIVMTQSPSTLSASVGDRVIITCQASQSIHSWLSWYQQKPGKAPKLLIYKASTLASGVPSRFSGSGSGAEFTLTISSLQPDDFATYYCQSYFDSTTIAFGQGTKLTVL	1.24 fold over parental antibody
MYT11084 (antibody, V domains shown) VH: EVQLVESGGGLVQPGGSLRLSCTASGLSLSSYWMSWVRQAPGKGLEWVGVISAGGNTYYANWAKGRFTISRDTSKNTVYLQMNSLRAEDTAVYFCARGDDGYTNAAYVSNLWGQGTLVTVSS VL: EIVMTQSPSTLSASVGDRVIITCQASQSISSWLSWYQQKPGKAPKLLIYKHSTLASGVPSRFSGSGSGAEFTLTISSLQPDDFATYYCQSYFDSTTIAFGQGTKLTVL	1.14 fold over parental antibody
MYT11081 (antibody, V domains shown) VH: EVQLVESGGGLVQPGGSLRLSCTASGLSLSSYWMSWVRQAPGKGLEWVGVISAGGNTYYANWAKGRFTISRDTSKNTVYLQMNSLRAEDTAVYFCARGDDGYTNAAYVSNLWGQGTLVTVSS VL: EIVMTQSPSTLSASVGDRVIITCQASQSISSWHSWYQQKPGKAPKLLIYKASTLASGVPSRFSGSGSGAEFTLTISSLQPDDFATYYCQSYFDSTTIAFGQGTKLTVL	1.22 fold over parental antibody
MYT11096 (antibody, V domains shown) VH: EVQLVESGGGLVQPGGSLRLSCTASGLSLSSYWMSWVRQAPGKGLEWVGVISAGGNTYYANWAKGRFTISRDTSKNTVYLQMNSLRAEDTAVYFCARGDDGYTNAAYVSNLWGQGTLVTVSS VL: EIVMTQSPSTLSASVGDRVIITCQASQSISSWLSWYQQKPGKAPKLLIYKASTLASGVPSRFSGSGSGAEFTLTISSLQPDDFATYYCQSYFDSHTIAFGQGTKLTVL	1.43 fold over parental antibody
MYT11079 (antibody, V domains shown) VH: EVQLVESGGGLVQPGGSLRLSCTASGLSLSSYWMSWVRQAPGKGLEWVGVISAGGNTYYANWAKGRFTISRDTSKNTVYLQMNSLRAEDTAVYFCARGDDGYTNAAYVSNLWGQGTLVTVSS VL: EIVMTQSPSTLSASVGDRVIITCQASQSISHWLSWYQQKPGKAPKLLIYKASTLASGVPSRFSGSGSGAEFTLTISSLQPDDFATYYCQSYFDSTTIAFGQGTKLTVL	1.2 fold over parental antibody

Other lines, results leading:

Internalization, FOW @ 25 nM (fold over the wildtype, parental antibody)	Binder
1.32 fold over parental antibody	MYT11190 (antibody, V domains shown) VH: EVQLVESGGGLVQPGGSLRLSCTASGIDLSSYVMGWVRQAPGKGLEWVGHIYGGGGTYYATWARGRFTISRDTSKNTVYLQMNSLRAEDTAVYFCARAAADFYFNLWGQGTLVTVSS VL: EIVMTQSPSTLSASVGDRVIITCQASQSISSYLAWYQQKPGKAPKLLIYDISDLASGVPSRFSGSGSGAEFTLTISSLQPDDFATYYCQSYYWISNSGAAFGQGTKLTVL
1.23 fold over parental antibody	MYT11212 (antibody, V domains shown) VH: EVQLVESGGGLVQPGGSLRLSCTASGIDLSSYVMGWVRQAPGKGLEWVGYIYGGGGTYYATWARGRFTISRDTSKNTVYLQMNSLRAEDTAVYFCARAAADHYFNLWGQGTLVTVSS VL: EIVMTQSPSTLSASVGDRVIITCQASQSISSYLAWYQQKPGKAPKLLIYDISDLASGVPSRFSGSGSGAEFTLTISSLQPDDFATYYCQSYYWISNSGAAFGQGTKLTVL
1.15 fold over parental antibody	MYT11232 (antibody, V domains shown) VH: EVQLVESGGGLVQPGGSLRLSCTASGIDLSSYVMGWVRQAPGKGLEWVGYIYGGGGTYYATWARGRFTISRDTSKNTVYLQMNSLRAEDTAVYFCARAAADFYFNLWGQGTLVTVSS VL: EIVMTQSPSTLSASVGDRVIITCQASQSISSYLAWYQQKPGKAPKLLIYDHSDLASGVPSRFSGSGSGAEFTLTISSLQPDDFATYYCQSYYWISNSGAAFGQGTKLTVL
1.14 fold over parental antibody	MYT11211 (antibody, V domains shown) VH: EVQLVESGGGLVQPGGSLRLSCTASGIDLSSYVMGWVRQAPGKGLEWVGYIYGGGGTYYATWARGRFTISRDTSKNTVYLQMNSLRAEDTAVYFCARAAAHFYFNLWGQGTLVTVSS VL: EIVMTQSPSTLSASVGDRVIITCQASQSISSYLAWYQQKPGKAPKLLIYDISDLASGVPSRFSGSGSGAEFTLTISSLQPDDFATYYCQSYYWISNSGAAFGQGTKLTVL
1.11 fold over parental antibody	MYT11257 (antibody, V domains shown) VH: EVQLVESGGGLVQPGGSLRLSCTASGIDHSRYSMGWVRQAPGKGLEWVGIISYGGSTYYASWAKGRFTISRDTSKNTVYLQMNSLRAEDTAVYFCARVGYPGYSGYGYAFDAFDPWGQGTLVTVSS VL: EIVMTQSPSTLSASVGDRVIITCQSSKSVYNDNWLSWYQQKPGKAPKLLIYGASTLASGVPSRFSGSGSGAEFTLTISSLQPDDFATYYCAGGYSSSSDNGFGQGTKLTVL
1.14 fold over parental antibody	MYT11259 (antibody, V domains shown) VH: EVQLVESGGGLVQPGGSLRLSCTASGIDLSHYSMGWVRQAPGKGLEWVGIISYGGSTYYASWAKGRFTISRDTSKNTVYLQMNSLRAEDTAVYFCARVGYPGYSGYGYAFDAFDPWGQGTLVTVSS VL: EIVMTQSPSTLSASVGDRVIITCQSSKSVYNDNWLSWYQQKPGKAPKLLIYGASTLASGVPSRFSGSGSGAEFTLTISSLQPDDFATYYCAGGYSSSSDNGFGQGTKLTVL
1.24 fold over parental antibody	MYT11261 (antibody, V domains shown) VH: EVQLVESGGGLVQPGGSLRLSCTASGIDLSRYHMGWVRQAPGKGLEWVGIISYGGSTYYASWAKGRFTISRDTSKNTVYLQMNSLRAEDTAVYFCARVGYPGYSGYGYAFDAFDPWGQGTLVTVSS VL: EIVMTQSPSTLSASVGDRVIITCQSSKSVYNDNWLSWYQQKPGKAPKLLIYGASTLASGVPSRFSGSGSGAEFTLTISSLQPDDFATYYCAGGYSSSSDNGFGQGTKLTVL
